Earlier results on 1 substance are cited in article PMC11996608.

By Kd is commonly meant the concentration at which binding is half-saturated.

In the data set the target is core RNA polymerase (Escherichia coli) (UniProt P0A7Z4).

RapA, sequence (P60240 2-968): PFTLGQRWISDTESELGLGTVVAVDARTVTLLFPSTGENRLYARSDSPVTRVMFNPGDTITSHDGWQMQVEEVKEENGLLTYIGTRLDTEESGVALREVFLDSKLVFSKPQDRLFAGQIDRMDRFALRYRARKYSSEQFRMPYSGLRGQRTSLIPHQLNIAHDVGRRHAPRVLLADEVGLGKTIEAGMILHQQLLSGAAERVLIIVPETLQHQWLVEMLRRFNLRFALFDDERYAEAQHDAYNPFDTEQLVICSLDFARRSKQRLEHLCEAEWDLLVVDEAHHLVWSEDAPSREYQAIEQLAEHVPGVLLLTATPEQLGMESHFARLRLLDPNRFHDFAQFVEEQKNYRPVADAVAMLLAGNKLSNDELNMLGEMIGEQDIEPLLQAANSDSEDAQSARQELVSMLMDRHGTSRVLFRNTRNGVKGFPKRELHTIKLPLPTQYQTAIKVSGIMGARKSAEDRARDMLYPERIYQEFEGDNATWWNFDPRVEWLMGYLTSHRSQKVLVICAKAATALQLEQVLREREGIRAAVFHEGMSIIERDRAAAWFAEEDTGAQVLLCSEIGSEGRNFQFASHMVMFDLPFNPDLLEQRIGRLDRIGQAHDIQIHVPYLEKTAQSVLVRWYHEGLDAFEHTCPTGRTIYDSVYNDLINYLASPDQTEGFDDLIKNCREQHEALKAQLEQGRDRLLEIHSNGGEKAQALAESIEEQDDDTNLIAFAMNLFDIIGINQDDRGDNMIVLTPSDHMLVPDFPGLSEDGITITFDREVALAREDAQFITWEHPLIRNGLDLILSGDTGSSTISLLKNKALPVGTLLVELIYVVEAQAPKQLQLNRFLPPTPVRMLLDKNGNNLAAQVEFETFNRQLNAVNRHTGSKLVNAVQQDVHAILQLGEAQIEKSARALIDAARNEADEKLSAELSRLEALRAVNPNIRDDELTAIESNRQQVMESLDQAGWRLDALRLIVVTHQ

Consider RapA (from UniProt P60240), for which the Kd was 7.5 nM.
